Data from the supplement of paper PMC10065799, “High-throughput profiling of sequence recognition by tyrosine kinases and SH2 domains using bacterial peptide display” (eLife, 2023).

Assays:
[1] = biological target: Grb2 SH2 (UniProt P62993); test: SH2 binding enrichment of the phosphorylated peptide, bacterial display (enrichment ratio); higher = better substrate or ligand; peptides without Tyr show the background
[2] = biological target: c-Src SH2; test: as above
[3] = biological target: SHP2-C SH2; test: as above
[4] = biological target: EPHB2 (UniProt P29323); test: phosphorylation enrichment, bacterial display (enrichment ratio); higher = better substrate or ligand; peptides without Tyr show the background
[5] = biological target: MERTK (UniProt Q12866); test: as above
[6] = biological target: Hck (UniProt P08631); test: as above
[7] = biological target: FGFR3 (UniProt P22607); test: as above
[8] = biological target: EPHB1 (UniProt P54762); test: as above
[9] = biological target: Fes (UniProt P07332); test: as above
[10] = tested on: AncSZ; test: as above
[11] = biological target: FGFR1 (UniProt P11362); test: as above
[12] = tested on: Fer (mouse); test: as above
[13] = tested on: c-Src; test: as above
[14] = tested on: c-Abl (mouse); test: as above
[15] = biological target: Jak2 (UniProt O60674); test: as above
[16] = biological target: Fyn (UniProt P06241); test: as above
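Throughout, for SH2 binding enrichment of the phosphorylated peptide, bacterial display: peptide library displayed on the E. coli surface as eCPX fusions, selected cells deep-sequenced, score is each peptide's frequency after selection divided by its frequency in the input.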
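Throughout, for phosphorylation enrichment, bacterial display: 11-residue human phosphosite peptides and single-mutation variants displayed on the E. coli surface, counted by deep sequencing, each peptide's frequency after selection divided by its frequency in the unselected input library; frequency after pTyr selection over input frequency; kinase dosed for 20-30% of maximal phosphorylation in three min.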

Chain of MERTK (Q12866 whole entry, looked up): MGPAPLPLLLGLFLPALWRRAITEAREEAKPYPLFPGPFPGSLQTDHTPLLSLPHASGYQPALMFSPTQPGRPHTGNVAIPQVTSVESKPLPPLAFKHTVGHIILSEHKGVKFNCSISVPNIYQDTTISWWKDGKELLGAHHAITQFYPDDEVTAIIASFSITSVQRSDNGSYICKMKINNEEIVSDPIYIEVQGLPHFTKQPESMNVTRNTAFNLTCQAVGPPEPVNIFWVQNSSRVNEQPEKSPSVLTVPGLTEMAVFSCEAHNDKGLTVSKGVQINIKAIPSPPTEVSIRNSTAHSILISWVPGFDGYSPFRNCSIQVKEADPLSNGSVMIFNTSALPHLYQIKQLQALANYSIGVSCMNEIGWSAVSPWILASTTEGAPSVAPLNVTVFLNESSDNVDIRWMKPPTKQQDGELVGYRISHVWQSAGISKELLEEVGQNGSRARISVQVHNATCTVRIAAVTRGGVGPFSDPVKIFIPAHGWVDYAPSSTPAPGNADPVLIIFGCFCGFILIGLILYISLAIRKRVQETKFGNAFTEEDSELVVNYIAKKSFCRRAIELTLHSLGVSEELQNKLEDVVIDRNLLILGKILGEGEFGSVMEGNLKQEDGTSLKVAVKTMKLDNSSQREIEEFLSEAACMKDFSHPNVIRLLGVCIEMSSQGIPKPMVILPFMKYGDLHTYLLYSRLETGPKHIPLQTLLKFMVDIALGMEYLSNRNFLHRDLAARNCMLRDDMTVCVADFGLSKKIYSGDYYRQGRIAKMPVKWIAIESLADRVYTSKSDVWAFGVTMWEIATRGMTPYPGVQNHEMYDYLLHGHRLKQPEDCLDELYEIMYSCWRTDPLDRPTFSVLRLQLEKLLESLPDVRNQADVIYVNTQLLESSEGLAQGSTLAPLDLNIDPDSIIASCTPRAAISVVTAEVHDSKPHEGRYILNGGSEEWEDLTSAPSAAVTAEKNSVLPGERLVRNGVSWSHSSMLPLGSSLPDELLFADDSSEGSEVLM
Chain of FGFR1 (P11362 whole entry, looked up): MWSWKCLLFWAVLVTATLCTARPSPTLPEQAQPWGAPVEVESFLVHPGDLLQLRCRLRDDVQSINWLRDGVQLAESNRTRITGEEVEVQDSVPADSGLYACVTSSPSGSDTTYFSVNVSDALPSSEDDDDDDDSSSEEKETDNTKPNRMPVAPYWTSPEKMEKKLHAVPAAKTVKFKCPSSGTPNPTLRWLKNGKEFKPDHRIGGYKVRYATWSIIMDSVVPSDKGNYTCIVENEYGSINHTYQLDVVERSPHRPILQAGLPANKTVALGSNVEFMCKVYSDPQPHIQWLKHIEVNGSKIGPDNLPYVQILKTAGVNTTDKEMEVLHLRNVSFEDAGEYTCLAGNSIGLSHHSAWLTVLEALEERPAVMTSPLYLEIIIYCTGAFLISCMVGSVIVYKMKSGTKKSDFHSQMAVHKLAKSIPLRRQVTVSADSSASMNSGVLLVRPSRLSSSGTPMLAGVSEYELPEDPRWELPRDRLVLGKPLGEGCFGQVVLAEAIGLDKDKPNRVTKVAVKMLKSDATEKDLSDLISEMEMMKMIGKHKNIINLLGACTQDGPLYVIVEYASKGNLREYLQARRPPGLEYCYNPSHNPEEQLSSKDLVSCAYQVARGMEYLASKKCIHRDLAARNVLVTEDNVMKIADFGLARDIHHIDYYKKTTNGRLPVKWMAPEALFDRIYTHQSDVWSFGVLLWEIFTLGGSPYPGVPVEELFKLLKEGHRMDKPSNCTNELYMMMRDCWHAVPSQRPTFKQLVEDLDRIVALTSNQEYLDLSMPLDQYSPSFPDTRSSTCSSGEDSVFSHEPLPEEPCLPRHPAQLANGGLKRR
Chain of FGFR3 (P22607 whole entry, looked up): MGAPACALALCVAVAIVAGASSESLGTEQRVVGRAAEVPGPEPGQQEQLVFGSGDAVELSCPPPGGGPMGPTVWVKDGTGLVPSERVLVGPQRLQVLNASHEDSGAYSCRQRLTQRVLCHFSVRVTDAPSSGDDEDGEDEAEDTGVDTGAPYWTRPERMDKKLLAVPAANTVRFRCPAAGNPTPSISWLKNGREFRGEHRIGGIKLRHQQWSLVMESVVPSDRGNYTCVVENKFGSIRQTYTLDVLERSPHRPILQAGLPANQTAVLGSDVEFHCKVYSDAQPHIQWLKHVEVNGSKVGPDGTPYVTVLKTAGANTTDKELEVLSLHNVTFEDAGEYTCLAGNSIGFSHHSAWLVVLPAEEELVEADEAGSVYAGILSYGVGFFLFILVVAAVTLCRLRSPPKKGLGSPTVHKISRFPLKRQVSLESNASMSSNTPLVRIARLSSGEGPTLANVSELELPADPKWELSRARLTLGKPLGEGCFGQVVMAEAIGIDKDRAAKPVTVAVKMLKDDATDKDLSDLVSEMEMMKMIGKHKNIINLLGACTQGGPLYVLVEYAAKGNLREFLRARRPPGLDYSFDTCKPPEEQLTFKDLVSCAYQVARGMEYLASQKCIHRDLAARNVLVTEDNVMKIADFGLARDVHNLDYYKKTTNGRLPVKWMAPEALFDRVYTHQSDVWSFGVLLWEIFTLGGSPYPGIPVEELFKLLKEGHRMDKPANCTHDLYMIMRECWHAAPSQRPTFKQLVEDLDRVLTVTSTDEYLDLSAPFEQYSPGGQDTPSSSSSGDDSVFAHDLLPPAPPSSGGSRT
Chain of EPHB2 (P29323 whole entry, looked up): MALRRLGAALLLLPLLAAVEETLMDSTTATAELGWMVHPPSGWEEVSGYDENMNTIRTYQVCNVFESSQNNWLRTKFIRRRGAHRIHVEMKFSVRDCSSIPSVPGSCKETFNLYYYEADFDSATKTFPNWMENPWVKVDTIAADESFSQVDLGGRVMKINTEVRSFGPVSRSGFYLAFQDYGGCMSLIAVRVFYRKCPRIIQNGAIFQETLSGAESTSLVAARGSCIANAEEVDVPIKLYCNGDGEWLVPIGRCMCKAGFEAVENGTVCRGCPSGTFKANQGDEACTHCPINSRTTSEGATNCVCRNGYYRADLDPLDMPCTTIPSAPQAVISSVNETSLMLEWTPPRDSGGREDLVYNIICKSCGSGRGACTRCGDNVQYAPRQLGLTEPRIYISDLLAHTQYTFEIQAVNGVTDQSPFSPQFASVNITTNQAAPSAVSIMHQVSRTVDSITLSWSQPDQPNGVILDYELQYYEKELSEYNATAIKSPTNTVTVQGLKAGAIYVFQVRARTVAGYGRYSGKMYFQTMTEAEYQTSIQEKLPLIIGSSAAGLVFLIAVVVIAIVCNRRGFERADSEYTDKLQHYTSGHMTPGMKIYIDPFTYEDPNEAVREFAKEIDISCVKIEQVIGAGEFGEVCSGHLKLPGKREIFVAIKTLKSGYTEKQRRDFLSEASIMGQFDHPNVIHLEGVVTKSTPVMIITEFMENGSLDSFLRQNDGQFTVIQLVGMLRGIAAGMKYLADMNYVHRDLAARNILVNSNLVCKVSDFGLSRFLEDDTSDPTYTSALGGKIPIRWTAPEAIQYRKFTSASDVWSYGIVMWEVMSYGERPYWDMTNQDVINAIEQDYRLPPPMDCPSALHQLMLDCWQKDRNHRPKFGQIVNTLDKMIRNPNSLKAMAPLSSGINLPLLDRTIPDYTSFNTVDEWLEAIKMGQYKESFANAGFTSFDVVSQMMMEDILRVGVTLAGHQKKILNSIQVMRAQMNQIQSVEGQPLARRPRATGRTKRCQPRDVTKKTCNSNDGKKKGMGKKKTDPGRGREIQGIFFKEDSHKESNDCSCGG
Chain of Fyn (P06241 whole entry, looked up, the tested form may be a part): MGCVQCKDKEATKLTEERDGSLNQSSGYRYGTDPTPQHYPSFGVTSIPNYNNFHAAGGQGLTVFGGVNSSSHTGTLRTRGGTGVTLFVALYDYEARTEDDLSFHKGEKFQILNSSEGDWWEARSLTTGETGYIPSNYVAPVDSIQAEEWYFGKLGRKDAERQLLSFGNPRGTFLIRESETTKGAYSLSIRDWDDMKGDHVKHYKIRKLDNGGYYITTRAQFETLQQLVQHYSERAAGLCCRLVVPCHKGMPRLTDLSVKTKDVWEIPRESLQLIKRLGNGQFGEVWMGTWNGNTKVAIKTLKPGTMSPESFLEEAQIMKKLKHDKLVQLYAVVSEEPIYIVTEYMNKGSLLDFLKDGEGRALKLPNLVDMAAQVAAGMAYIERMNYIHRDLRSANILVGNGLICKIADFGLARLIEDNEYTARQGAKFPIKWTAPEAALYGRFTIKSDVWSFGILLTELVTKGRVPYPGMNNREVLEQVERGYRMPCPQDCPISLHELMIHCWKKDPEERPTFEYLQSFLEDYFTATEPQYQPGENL
Chain of Hck (P08631 whole entry, looked up): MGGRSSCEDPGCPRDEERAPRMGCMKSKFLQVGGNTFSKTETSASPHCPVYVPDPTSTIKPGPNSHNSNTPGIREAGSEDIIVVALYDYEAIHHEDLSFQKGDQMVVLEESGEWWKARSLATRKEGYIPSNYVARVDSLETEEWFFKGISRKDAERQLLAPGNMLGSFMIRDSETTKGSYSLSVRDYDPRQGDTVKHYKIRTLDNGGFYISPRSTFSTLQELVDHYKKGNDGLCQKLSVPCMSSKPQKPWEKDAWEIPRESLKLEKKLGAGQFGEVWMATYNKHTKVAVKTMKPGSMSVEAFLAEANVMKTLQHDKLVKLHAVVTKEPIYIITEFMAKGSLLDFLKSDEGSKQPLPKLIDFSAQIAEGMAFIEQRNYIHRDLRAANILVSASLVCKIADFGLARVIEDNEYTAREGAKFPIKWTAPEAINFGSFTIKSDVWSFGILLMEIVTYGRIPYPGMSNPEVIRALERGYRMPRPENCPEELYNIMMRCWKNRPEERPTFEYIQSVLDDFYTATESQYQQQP

Sequence | SH2 binding enrichment [1] | SH2 binding enrichment [2] | SH2 binding enrichment [3] | phosphorylation enrichment [4] | phosphorylation enrichment [5] | phosphorylation enrichment [6] | phosphorylation enrichment [7] | phosphorylation enrichment [8] | phosphorylation enrichment [9] | phosphorylation enrichment [10] | phosphorylation enrichment [11] | phosphorylation enrichment [12] | phosphorylation enrichment [13] | phosphorylation enrichment [14] | phosphorylation enrichment [15] | phosphorylation enrichment [16]
FIAVGYVDDTQ [HLA-A_Y51] | 1.05 | 0.625 | 0.967 | 0.499 | 0.415 | 0.509 | 0.553 | 0.453 | 0.949 | 0.822 | 0.505 | 0.429 | 0.49 | 0.668 | 0.782 | 0.406
RSFSPCDFQPC [TNS1_Y796_Y796C_YF] | 0.945 | 0.693 | 0.602 | 0.991 | 0.643 | 0.786 | 0.822 | 0.54 | 0.972 | 0.83 | 0.672 | 0.584 | 0.583 | 0.427 | 0.705 | 0.783
SHGQDYLVGNK [GSTA1_Y147] | 0.58 | 0.432 | 0.564 | 0.456 | 0.363 | 0.412 | 0.419 | 0.402 | 0.74 | 0.585 | 0.385 | 0.449 | 0.417 | 0.62 | 0.606 | 0.451
CLAKMYYSAVD [CP_Y539] | 0.942 | 3.43 | 0.902 | 0.701 | 2.33 | 0.708 | 0.936 | 1.02 | 1.18 | 1.14 | 0.812 | 1.18 | 0.722 | 0.674 | 0.956 | 0.572
THPFLYLSLEI [MLH1_Y293] | 1.19 | 0.682 | 0.74 | 0.648 | 0.385 | 0.516 | 0.827 | 0.628 | 1.52 | 1.13 | 0.622 | 0.478 | 0.363 | 0.817 | 1.4 | 0.383
NPSYNYEIVNQ [DYNC1H1_Y3379_R3384Q] | 0.736 | 0.642 | 0.348 | 4.17 | 0.694 | 0.497 | 0.701 | 10.5 | 0.818 | 0.885 | 0.583 | 2.7 | 0.506 | 0.55 | 0.754 | 0.463
RPSELYFSKIG [SMG1_Y2253_YF] | 1.04 | 0.557 | 0.919 | 0.457 | 0.791 | 1.74 | 0.654 | 0.49 | 0.671 | 0.605 | 0.641 | 0.421 | 0.623 | 0.687 | 0.51 | 0.546
PYTDPYYDYEI [ZC3H18_Y371_A368T] | 1.13 | 2.66 | 0.591 | 3.3 | 3.26 | 2.43 | 14.7 | 2.99 | 1.97 | 3.74 | 18.9 | 4.55 | 6.46 | 1.59 | 1.88 | 4.83
SSTAMYSAPGR [PSMB1_Y8] | 0.774 | 1.08 | 0.557 | 0.674 | 1.66 | 2.28 | 0.464 | 0.497 | 0.524 | 0.75 | 0.45 | 0.857 | 0.631 | 6.02 | 0.58 | 0.484
ICANKYMVKSC [RPL10_Y75] | 1.09 | 1.13 | 1.12 | 0.445 | 0.409 | 0.424 | 0.514 | 0.476 | 0.815 | 0.719 | 0.385 | 0.464 | 0.44 | 0.524 | 0.735 | 0.406
SQSAKYDMAED [TTC21B_Y1213_I1208S] | 0.839 | 1.22 | 0.545 | 0.635 | 0.441 | 0.582 | 0.56 | 0.461 | 0.894 | 0.9 | 0.634 | 0.509 | 0.566 | 0.661 | 0.858 | 0.556
HNLPIYEGFAL [ACTA1_Y168_V165L_YF] | 0.837 | 0.579 | 0.721 | 24.3 | 12.6 | 12.8 | 1.13 | 17.5 | 2.8 | 1.86 | 0.677 | 21.9 | 9.44 | 14 | 0.996 | 14.1
IKEFKYGIEEH [GJA1_Y137_K134E] | 0.856 | 0.457 | 0.489 | 0.464 | 0.342 | 0.42 | 0.684 | 0.39 | 0.918 | 0.836 | 0.508 | 0.402 | 0.365 | 0.612 | 0.581 | 0.349
QMEKICTQQIQ [CCNB1IP1_Y125_Y125C] | 0.834 | 0.486 | 0.558 | 0.647 | 0.461 | 0.409 | 0.948 | 0.707 | 1.64 | 1.36 | 1 | 0.537 | 0.573 | 0.986 | 1.24 | 0.486

Further lines, with some results ahead:

SH2 binding enrichment [1] | SH2 binding enrichment [2] | SH2 binding enrichment [3] | Sequence | phosphorylation enrichment [4] | phosphorylation enrichment [5] | phosphorylation enrichment [6] | phosphorylation enrichment [7] | phosphorylation enrichment [8] | phosphorylation enrichment [9] | phosphorylation enrichment [10] | phosphorylation enrichment [11] | phosphorylation enrichment [12] | phosphorylation enrichment [13] | phosphorylation enrichment [14] | phosphorylation enrichment [15] | phosphorylation enrichment [16]
0.624 | 0.603 | 0.887 | LSVMSYDLGMF [GBA3_Y174] | 0.707 | 0.62 | 0.947 | 1.13 | 0.876 | 1.59 | 1.31 | 0.789 | 0.602 | 0.75 | 1.07 | 1.44 | 0.759
2.09 | 1.2 | 1.8 | LVMFIYAIFGM [SCN1A_Y1684] | 1.03 | 1.13 | 0.777 | 1.41 | 1.03 | 1.88 | 1.49 | 0.952 | 1.19 | 1.99 | 1.55 | 1.94 | 1.21
0.901 | 0.525 | 0.758 | SAEEDYMADAK [KCNT1_Y876] | 0.662 | 0.486 | 0.586 | 0.843 | 0.733 | 1.36 | 1.3 | 0.634 | 0.632 | 0.473 | 0.686 | 1.25 | 0.652
1.09 | 3.1 | 25.9 | NGSKGYAFVHF [PABPC5_Y147_YF] | 0.606 | 0.444 | 0.445 | 0.611 | 0.481 | 0.875 | 0.879 | 0.5 | 0.478 | 0.407 | 0.755 | 0.825 | 0.469
0.883 | 0.732 | 0.563 | GYAGKYIAMVM [CYP19A1_Y441_C437Y] | 0.483 | 0.479 | 0.526 | 0.584 | 0.525 | 0.904 | 0.752 | 0.521 | 0.545 | 0.381 | 0.862 | 0.644 | 0.489
0.699 | 0.443 | 0.535 | HHIDYYKKTTN [FGFR1_Y654] | 0.721 | 0.663 | 0.481 | 0.803 | 0.47 | 0.633 | 0.577 | 0.568 | 0.646 | 0.481 | 0.569 | 0.592 | 0.711
1.1 | 1.86 | 1.82 | TTPFNYSFIFK [RAB14_Y8_A4T_YF] | 0.734 | 1.93 | 0.695 | 0.793 | 2.1 | 1.28 | 1.2 | 0.725 | 0.74 | 0.593 | 0.86 | 0.941 | 0.705
0.891 | 0.765 | 0.822 | GNLLIYTDFGK [HGD_Y166_E168D] | 1.27 | 3.44 | 3.49 | 0.702 | 3.06 | 1.27 | 1.08 | 0.682 | 0.726 | 4.63 | 1.53 | 1.09 | 4.75
1.64 | 1.6 | 1.54 | RDLTHYLMKIL [ACTG1_Y188_D187H] | 0.804 | 0.583 | 1.06 | 0.85 | 1.05 | 1.12 | 1.27 | 0.665 | 0.64 | 0.463 | 0.692 | 0.477 | 0.756
0.956 | 1.42 | 0.804 | APSGNYVACGG [GNB1_Y111] | 0.691 | 0.437 | 0.429 | 1.07 | 0.822 | 0.788 | 1.13 | 0.478 | 0.513 | 0.301 | 0.584 | 0.571 | 0.363
0.519 | 0.486 | 0.485 | RRERDYTNLPS [CSF1R_Y923] | 0.548 | 0.558 | 0.62 | 0.541 | 0.447 | 0.561 | 2.88 | 0.493 | 0.474 | 0.668 | 0.692 | 0.628 | 0.651
0.783 | 0.502 | 0.664 | EQLRAYLEGEC [HLA-C_Y183_T187E] | 0.623 | 0.51 | 0.533 | 0.949 | 0.775 | 1.25 | 1.3 | 0.514 | 0.537 | 0.465 | 1.15 | 1.14 | 0.548
0.941 | 0.477 | 0.654 | QKFMAYPSQGG [HLCS_Y236_L237P] | 0.525 | 0.613 | 0.537 | 0.484 | 0.388 | 0.886 | 0.625 | 0.512 | 0.654 | 0.779 | 1.12 | 1.2 | 0.388
0.912 | 0.482 | 0.761 | KEELAYLKKNH [KRT14_Y248] | 0.422 | 0.333 | 0.541 | 0.515 | 0.413 | 0.742 | 0.597 | 0.451 | 0.375 | 0.35 | 0.528 | 0.512 | 0.395
0.766 | 0.613 | 0.732 | SHMVNYQPFRK [TEX37_Y25_D24N_YF] | 0.371 | 0.358 | 0.405 | 0.364 | 0.376 | 0.534 | 0.528 | 0.347 | 0.355 | 0.492 | 0.504 | 0.573 | 0.37
1.23 | 0.758 | 0.875 | RSSKTYLKTRS [LPL_Y329_M328T] | 0.561 | 0.985 | 0.706 | 0.583 | 0.609 | 0.967 | 0.739 | 0.499 | 0.708 | 0.856 | 0.853 | 0.596 | 0.593
1.02 | 0.71 | 0.979 | DFFDLYGGEKL [PTPN11_Y66_F71L_YF] | 0.901 | 0.9 | 3.61 | 0.746 | 0.743 | 1.92 | 1.54 | 0.582 | 0.816 | 3.79 | 1.02 | 1.88 | 2.1
0.728 | 0.841 | 0.557 | METKGYQSLPE [NR3C2_Y6_H7Q] | 0.449 | 0.361 | 0.423 | 0.568 | 0.495 | 0.825 | 0.682 | 0.449 | 0.448 | 0.326 | 0.683 | 0.77 | 0.421
0.8 | 0.587 | 0.795 | KFVKMCDNHQL [MYO9A_Y203_Y203C_YF] | 0.384 | 0.378 | 0.42 | 0.45 | 0.425 | 0.603 | 0.483 | 0.429 | 0.358 | 0.441 | 0.519 | 0.513 | 0.419
